Laboratory results published in publication PMC11499381.
No end group written: not given here.

Tests used:
[1] = biological target: CTR/N-V_(155–238)-RAMP1 (human) (UniProt O60894)
[2] = biological target: N-V_(1–154)-CTR/N-V_(155–238)-RAMP1 (human) (UniProt O60894)
[3] = biological target: CTR-C-V_(1–154)/RAMP1-C-V_(155–238) (human) (UniProt O60894)
[4] = biological target: CTR-C-V_(1–154)/RAMP1 (human) (UniProt O60894)
[5] = biological target: N-V_(1–154)-CTR/RAMP1 (human) (UniProt O60894)
[6] = biological target: WT CTR/RAMP1 (AMY1 receptor) (human) (UniProt O60894)
[7] = biological target: CTR/RAMP1-C-V_(155–238) (human) (UniProt O60894)

Sequence of WT CTR (human) (P30988 25-474): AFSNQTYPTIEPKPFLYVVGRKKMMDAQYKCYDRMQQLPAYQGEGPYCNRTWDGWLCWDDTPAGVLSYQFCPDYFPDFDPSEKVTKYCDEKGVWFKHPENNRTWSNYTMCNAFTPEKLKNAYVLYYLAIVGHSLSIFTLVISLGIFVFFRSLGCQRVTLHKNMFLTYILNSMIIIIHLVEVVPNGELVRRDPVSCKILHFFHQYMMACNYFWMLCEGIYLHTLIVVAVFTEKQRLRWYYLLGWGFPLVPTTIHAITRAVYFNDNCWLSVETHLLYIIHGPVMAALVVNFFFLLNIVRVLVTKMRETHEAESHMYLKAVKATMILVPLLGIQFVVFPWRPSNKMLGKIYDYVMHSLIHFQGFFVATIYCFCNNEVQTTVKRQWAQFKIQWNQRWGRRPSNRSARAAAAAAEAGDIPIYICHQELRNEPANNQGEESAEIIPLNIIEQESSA

Row | Emax of h-αCGRP-stimulated cAMP production, Cos7 cells, percent of the matched WT curve [1] | pEC50 of h-αCGRP-stimulated cAMP production, Cos7 cells, 15 min [1] [pEC50] | pEC50 of h-αCGRP-stimulated cAMP production, Cos7 cells, 15 min, CTR without RAMP1 (WT CTR (human)) [pEC50] | Emax of h-αCGRP-stimulated cAMP production, Cos7 cells, percent of the matched WT curve [2] | pEC50 of h-αCGRP-stimulated cAMP production, Cos7 cells, 15 min [2] [pEC50] | Emax of h-αCGRP-stimulated cAMP production, Cos7 cells, percent of the matched WT curve [3] | pEC50 of h-αCGRP-stimulated cAMP production, Cos7 cells, 15 min [3] [pEC50] | Emax of h-αCGRP-stimulated cAMP production, Cos7 cells, percent of the matched WT curve [4] | pEC50 of h-αCGRP-stimulated cAMP production, Cos7 cells, 15 min [4] [pEC50] | Emax of h-αCGRP-stimulated cAMP production, Cos7 cells, percent of the matched WT curve [5] | pEC50 of h-αCGRP-stimulated cAMP production, Cos7 cells, 15 min [5] [pEC50] | pEC50 of h-αCGRP-stimulated cAMP production, Cos7 cells, 15 min (WT control of the N-terminal series) [6] [pEC50] | Emax of h-αCGRP-stimulated cAMP production, Cos7 cells, percent of the matched WT curve [7] | pEC50 of h-αCGRP-stimulated cAMP production, Cos7 cells, 15 min [7] [pEC50] | fold loss of calcitonin potency (cAMP production) against WT CTR, Cos7 cells (N-V_(1–154)-CTR (human)) [fold] | fold loss of calcitonin potency (cAMP production) against WT CTR, Cos7 cells (CTR-C-V_(1–154) (human)) [fold] | Molecule
1 | 74.9 % of WT | 8.16 | 6.63 | 77.3 % of WT | 8.83 | 71.5 % of WT | 7.52 | 81.2 % of WT | 8.41 | 74 % of WT | 8.92 | 9.1 | 83.5 % of WT | 8.62 | – | – | Human αCGRP (from UniProt P06881 83-119) (peptide)
2 | – | – | – | – | – | – | – | – | – | – | – | – | – | – | 10 | 3 | CGNLSTCMLGTYTQDFNKFHTFPQTAIGVGAP (ends and bridges not checked; cysteine pairing not given here) [Human calcitonin]
